Fewer inactive variants are shown than the library holds.
B1: glmS ribozyme (parent)
chain: AUAAAAGCGCCAGAACUACAGAAAUGUAGUUGACGAGGAGGAGGUUUAUCGAAUUUUCGGCGGAUGCCUCCAAA

Tests used:
Details in all cases: with glucosamine-6-phosphate
glucosamine-6-phosphate [1] = variants of: B1; experiment: self-cleavage kobs at 160 uM GlcN6P; higher = faster cleavage; RNA array
Procedure, shortened: (§1)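 Ribozyme variants carrying barcodes were transcribed in situ on sequenced MiSeq chips by E. coli RNA polymerase and tracked at 37 °C with a hybridised Cy3 probe. They were exposed to 40 μM to 10 mM glucosamine-6-phosphate in HEPES/KCl/Mg(OAc)2 buffer. kobs came from exponential decay fits of normalised per-tile medians, and kcat and KM from weighted Michaelis–Menten fits.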

glucosamine-6-phosphate [2] = variants of: B1; experiment: self-cleavage kobs at 640 uM GlcN6P; higher = faster cleavage; RNA array
Procedure, shortened: as §1

glucosamine-6-phosphate [3] = variants of: B1; experiment: self-cleavage kobs at 2500 uM GlcN6P; higher = faster cleavage; RNA array
Procedure, shortened: as §1

glucosamine-6-phosphate [4] = variants of: B1; experiment: self-cleavage kobs at 10000 uM GlcN6P; higher = faster cleavage; RNA array
Procedure, shortened: as §1

Row | Variant | self-cleavage kobs at 160 uM GlcN6P (glucosamine-6-phosphate [1]) | self-cleavage kobs at 640 uM GlcN6P (glucosamine-6-phosphate [2]) | self-cleavage kobs at 2500 uM GlcN6P (glucosamine-6-phosphate [3]) | self-cleavage kobs at 10000 uM GlcN6P (glucosamine-6-phosphate [4])
1 | AUAAAAGCGCCAGAACUACAGAAAUGUAGUUGACAAGGAGGAGGUUUAUCGAAUUUACGGCGGAUGCCUCCAAA | < 1e-05 s⁻¹ | < 1e-05 s⁻¹ | < 1e-05 s⁻¹ | < 1e-05 s⁻¹
2 | AUAAAAGCGCCAGAACUACAGAAAUGUAGUUGACUGGGAGGGGGUUUAUCGAAUCUUCGGCGGAUGCCUCCAAA | < 1e-05 s⁻¹ | – | < 1e-05 s⁻¹ | –
3 | AUAAAAGCGCCAGAACUACAGAAAUGUAGUUGACGCGGAGGAGGUUUAUCGAAUUUUCAGCGGAUGCCUCGAAA | < 1e-05 s⁻¹ | – | – | < 1e-05 s⁻¹
4 | AUAAAAGCGCCAGAACUACAGAAAUGUAGUUGACGUGGAGGAGGUUUAUCGAAUUUUCGACGGAUGCCUCCAAA | < 1e-05 s⁻¹ | – | < 1e-05 s⁻¹ | < 1e-05 s⁻¹
5 | AUAAAAGCGCCAGAACUACAGAAAUGUAGUUGACCAGGACGAGGUUAAUCGAAUUUUCGGCUGAUGCCUCCAAA | < 1e-05 s⁻¹ | < 1e-05 s⁻¹ | – | –
6 | AUAAAAGCGCCAGAACUACAGAAAUGUAGUUGACGCGAAGGAGCUUUAUCGAAUUUUCGGCGGAUGUGUCCAAA | < 1e-05 s⁻¹ | < 1e-05 s⁻¹ | < 1e-05 s⁻¹ | –
7 | AUAAAAGCGCCAGAACUACAGAAAUGUAGUUGACUUUGAGGAGGUUUAUCGAAUUUUCGGCGGAUUCCUCCAAA | < 1e-05 s⁻¹ | – | – | –
8 | AUAAAAGCGCCAGAACUACAGAAAUGUAGUUGACGCCGAGGAGGUUUAUCGUAUUUUCGGCGGGUGCCUGCAAA | < 1e-05 s⁻¹ | < 1e-05 s⁻¹ | – | –
9 | AUAAAAGCGCCAGAACUACAGAAAUGUAGUUGACUAGGAGGAGGUUUAUCGAAUUUUCGGCGGGUGCCUCCAAA | < 1e-05 s⁻¹ | < 1e-05 s⁻¹ | < 1e-05 s⁻¹ | –
10 | AUAAAAGCGCCAGAACUACAGAAAUGUAGUUGACGGGGAGGAGGUUUAUAGAAUUUUCGGCGGAUGCCUCCAAA | < 1e-05 s⁻¹ | < 1e-05 s⁻¹ | – | –
11 | AUAAAAGCGCCAGAACUACAGAAAUGUAGUUGACGCGGUGGAGGUUUAUCGAAUUUCCGGCGGAUGCCUCCAAA | < 1e-05 s⁻¹ | – | – | –
12 | AUAAAAGCGCCAGAACUACAGAAAUGUAGUUGACGCGGAGGAGGUUUAUCGAACUUUCGGCGGAUGCCUCCAAA | < 1e-05 s⁻¹ | – | – | < 1e-05 s⁻¹
13 | AUAAAAGCGCCAGAACUACAGAAAUGUAGUUGACUAGGAGGAGGUUUAUCGAAUUUUCGGCGGAUCCCUCCAAA | < 1e-05 s⁻¹ | < 1e-05 s⁻¹ | < 1e-05 s⁻¹ | –
14 | AUAAAAGCGCCAGAACUACAGAAAUGUAGUUGACGUGGAGGAGGUUUAUUGAAUUUUCGGCGGAUGCCUCCAAA | < 1e-05 s⁻¹ | – | < 1e-05 s⁻¹ | –
15 | AUAAAAGCGCCAGAACUACAGAAAUGUAGUUGACGCGCAGGAGGUUUAUCGAAUUUUCGGCGAAUGCCUCCAAA | < 1e-05 s⁻¹ | – | – | –
16 | AUAAAAGCGCCAGAACUACAGAAAUGUAGUUGACCAGGAGGAGGUUUAUCGAAUUUUCGGCUGUUGCCUCCAAA | < 1e-05 s⁻¹ | – | < 1e-05 s⁻¹ | –

Row | Variant | self-cleavage kobs at 160 uM GlcN6P (glucosamine-6-phosphate [1]) | self-cleavage kobs at 640 uM GlcN6P (glucosamine-6-phosphate [2]) | self-cleavage kobs at 2500 uM GlcN6P (glucosamine-6-phosphate [3]) | self-cleavage kobs at 10000 uM GlcN6P (glucosamine-6-phosphate [4])
17 | AUAAAAGCGCCAGAACUACAGAAAUGUAGUUGACUAGGAGGAGGUUUAUCGAAUUUUAGGCGGAUGCCUCGAAA | < 1e-05 s⁻¹ | < 1e-05 s⁻¹ | – | –
18 | AUAAAAGCGCCAGAACUACAGAAAUGUAGUUGACGGGUAGGAGGUUUAUCGAAUUUUCGGUGGAUUCCUCCAAA | < 1e-05 s⁻¹ | – | – | –
19 | AUAAAAGCGCCAGAACUACAGAAAUGUAGUUGACUAGGAGGAAGUUUAUCGAAUUUUCGGCGGAUGCCUCCAAA | < 1e-05 s⁻¹ | – | < 1e-05 s⁻¹ | < 1e-05 s⁻¹
20 | AUAAAAGCGCCAGAACUACAGAAAUGUAGUUGACGCGGAGGAGCUUUAUCGAAUUUUCGGCGGAUGCCUCCAAA | < 1e-05 s⁻¹ | – | < 1e-05 s⁻¹ | < 1e-05 s⁻¹
21 | AUAAAAGCGCCAGAACUACAGAAAUGUAGUUGACGGGGAGGAGGUUUAUCGAAUUUUCGGGGGAUGCCUCCAAA | < 1e-05 s⁻¹ | < 1e-05 s⁻¹ | – | < 1e-05 s⁻¹
22 | AUAAAAGCGCCAGAACUACAGAAAUGUAGUUGACGGGGAGGAGGCUUAUCGAAUUUUCGGCGGAUGCCUCCAAA | < 1e-05 s⁻¹ | < 1e-05 s⁻¹ | < 1e-05 s⁻¹ | –
23 | AUAAAAGCGCCAGAACUACAGAAAUGUAGUUGACGGGGAGGAGAUUUAUCGAAUCUUCGGCGGAGGCCUCCAAA | < 1e-05 s⁻¹ | < 1e-05 s⁻¹ | < 1e-05 s⁻¹ | –
24 | AUAAAAGCGCCAGAACUACAGAAAUGUAGUUGACAAGGAGGAGGUUUAUCGAAUUGUCGGCGGGUGCCUCCAAA | < 1e-05 s⁻¹ | – | < 1e-05 s⁻¹ | < 1e-05 s⁻¹
25 | AUAAAAGCGCCAGAACUACAGAAAUGUAGUUGACGUGGAGCAGGUUUAUCGAAUUUUCGGCGGAUGCCUCCAAA | < 1e-05 s⁻¹ | – | < 1e-05 s⁻¹ | < 1e-05 s⁻¹
26 | AUAAAAGCGCCAGAACUACAGAAAUGUAGUUGACCGGGAGGAGGUUUACCGACUUUUCGGCGGAUGCUUCCAAA | < 1e-05 s⁻¹ | < 1e-05 s⁻¹ | < 1e-05 s⁻¹ | –
27 | AUAAAAGCGCCAGAACUACAGAAAUGUAGUUGACGUGGAGGAGGUUUAUCGAAUUUUCGGUGGGUGCCUCCAAA | < 1e-05 s⁻¹ | < 1e-05 s⁻¹ | – | –
28 | AUAAAAGCGCCAGAACUACAGAAAUGUAGUUGACCAGGAGGAGGUUUAUCGAAUUUUCGGCUGAUGGCUUCAAA | < 1e-05 s⁻¹ | – | – | –
29 | AUAAAAGCGCCAGAACUACAGAAAUGUAGUUGACGGGGAGGAGGUUUAUCGAAUUUGCGGCGGAUGCCUCCAAA | < 1e-05 s⁻¹ | < 1e-05 s⁻¹ | < 1e-05 s⁻¹ | < 1e-05 s⁻¹
30 | AUAAAAGCGCCAGAACUACAGAAAUGUAGUUGACUACGAGGAGGUUUAUCGAAUUUUCGGCGGAUGCCUCCAAA | < 1e-05 s⁻¹ | < 1e-05 s⁻¹ | < 1e-05 s⁻¹ | –
31 | AUAAAAGCGCCAGAACUACAGAAAUGUAGUUGACGCGGAGGAGGUUUAUCCAAUUUUCGGCGGAUGCCUCCAAA | < 1e-05 s⁻¹ | – | – | < 1e-05 s⁻¹
